# Reference: the DeepSol protein solubility set
# Experiment: soluble on expression in E. coli; label from the status in PepcDB or PDB records
row,Sequence,soluble on expression in E. coli
1,MLLGEGAFGQVFKGILRGPNGQVIPVAVKQLKANAIDEEREEFVREIQMMQTVGQHDNIVTMYGYCMDEQLQCMIMEYVPYGDLKHYLQNMRKEKDSDSAIDSKEFLSFTNQIACGMAHLESVGIIHRDLAARNILVGTGKVLKISDFGMSRPGVYIKMSKGVIPLRWLSPEAIKDNTYSNKSDVWAFGVLLWEIATLGGFPYNNVADKDILNQLTEGMRLEQPAKCSDDMYILMKSCWNLKAEDRPSFLAILSKIEQIANVDADAPPSDPPAKDV,not soluble
2,MLLKLKCTVNNYAWGPKGNSSMAGSLALDGGHIPNLDKDKPYAEFWVGTHANGPAHVIEKDIALKQLLATSPELQGKHEKGNLSFLFKVLSVLGPLSIQIHPTKEQGKLLHATDPKNYPDDNHKPEIAIALTEFELLSGFRQHSQISEYLKLYSEIQELLTEEEKSQIDSLGSYGESSAQVLKKIFSRIWRTPKEKLQIVVDKLARRIQGHENKTALDEIIVYLFTLYPGDVGVFAPIFLNYFKLQPGEATFLEPNMPHAYLKGDCVECMADSDNTIRAGLTPKYIDVESLVEMLNYDETLLPKYIPNELDDGSLLFTPRGIDEFWVQEVKGPAGSIYQLPYSESCSVLTVLYGTATVTLGDASQVLNRGEVVFIGATHDAERPKINISDDFLAFRAFTPSPRALESLSNKRLIID,not soluble
3,MLLKSIHHIAIICSDYEKSKAFYVHKLGFQVIQETYREERGSYKLDLSLNGSYVIELFSFPDPPERQTRPEAAGLRHLAFTVGSLDKAVQELHEKGIETEPIRTDPLTGKRFTFFFDPDQLPLELYEQ,not soluble
4,MLLPRCCWGRWLMGRRPRCSCQAPAGFDGKDGRGSRVREMPPWRVLFLGTDHFARETLRALHAARDGKEEKLIEKLEVVTVPSLSPKGLPVKQYAIQSQLPVYEWPDVGSGEYDVGVVASFGRLLSEALILKFPYGILNVHPSCLPRWRGPAPIIHTVLHGDTVTGVTIMQIRPKRFDIGPILQQETIPVPPKSTSKELEAVLSKLGANMLISVLKNLPESLNNGRPQPAEGVTYAPKVSAGTSCVKWEEQTSEQVLRLHLAIGDIVPLQTLWMENTVKLLDLVEVNNSILADPKLTGQTVTPGFVVYHRPSQMLLVRCKDGWIGVRSVMLKKTLTATDFYNGYLHAWYQKNSHAHPSQCRFQTLRLPTKMQQKTKLLLCNSALSS,soluble
5,MLMAATIPHIETITFTDWFLAIIDTPDIPIDEIEIRVAEGFKRKLTERQFQQLTELIHLISFIKHKKISNPTLALRIYVDENTSSLSRTALVEAVRMLPPEDNKTYELAAYLAQKNKLERYTNITKVPPLQIYQGDGVFEQYDEWILLFELFGLTQATPSDFIPAIAHLLITKNLGIPDLRALSKFMSTTHKLGILSQSFMNNMTPHLCNGQIIEKYESLLLKLQINDLLTEEILEVIYPLLNQPDALDAFFSLYHEEPSHDSALSFLREILPSFCAMSLPSKESYDDQVPTNTPLHLAVIESDKGNLERTLAFANRNLLIKCSYENTALLLACKLADKESARLILAKMQELGCDVNQRDHHGMTALHWANFYHFDELIRELEIAGADPQLKAANGKTCEYFYQHQFTLKDLKLNGKEIIDGEFKLSDCALTDIAFHMDKIALNLKLTTPSEIAELYARDEIAQIRSSNRFYLFFKLFRPKLINWLEKQNDLEPQVTYRFSGQSSSA,not soluble
6,MLNRYYRFAVEKDDPSEAPESGDKPDSQPQKKS,not soluble
7,MLNVESHVLRYWEEELEIKIPRNEMGHRYYTEDNIESLRKVRDLKKQGYSLKAIKNMVNPKKATRENKESNERLTVRQPISLMEVREKKVGVENCYQEVPEAMSGSVQSVVQNMTQSNGQNAESAGLKLEQFQNLMNKVVSKALKESTTNLGKELSDNVSENVLKGMNYMMRVQDEKEEERYRKLDELMRNKQKLSRREKRKKAKAEKLLLKNKKKGMAHFGKKPQTT,not soluble
8,MLPAYIRIHDQIKKEIDEGLWKIGDRLPSERDLAERFEVSRMTLRQAITLLVEEGILERRVGSGTYIASSRVQEKMRGTTSFTEIVKSQGKTPSTKLISYRRVHPSEQEIKFLDIKPKSYIIRMERVRYADDIPVVFEVTAIPEKIIKSFKKEAITKHFFKTLTDHGFVIGKSQQTISASNANEMTADYLAISRGHAVLTLAQVSYFENGMPFEYVRSQYVGERFEFYLENK,not soluble
9,MLPEKRLLTPDDMKLWEESPTRAHFTKFIIDLAESVKGHENSQYKEPISESINSMMNLLSQIKDITQKHPVIKDADSSRFGKVEFRDFYDEVSRNSRKILRSEFPSLTDEQLEQLSIYLDESWGNKRRIDYGSGHELNFMCLLYGLYSYGIFNLSNDSTNLVLKVFIEYLKIMRILETKYWLEPAGSHGVWGLDDYHFLPFLFGAFQLTTHKHLKPISIHNNELVEMFAHRYLYFGCIAFINKVKSSASLRWHSPMLDDISGVKTWSKVAEGMIKMYKAEVLSKLPIMQHFYFSEFLPCPDGVSPPRGHIHDGTDKDDECNFEGHVHTTWGDCCGIKLPSAIAATEMNKKHHKPIPFD,soluble
10,MLPFLPEPSLSYTQQNRTAVLLLNLGTPDAPTAQAVRPYLKSFLTDRRIVELPKWLWYPILHGLVLTFRPKKSAHAYEKIWFKEGSPLEVYTARQAAALAERMPDLIVRHAMTYGNPSIADVLAELKSQGVGRLLAIPLYPQYAASSSGAAVDKVCEQLLLQRNQMSVRTISRFYDDAGYIDAMKNHILRYWAEHGRGKKLMLSFHGVPQKHYDLGDPYPDECRHTAKLLAEALELTEDEYTVSFQSQFGRAKWVTPSTQDLFGKLPKQGVTELDVFCPGFLADCLETMEEIALMGREQFYEAGGKNYRYIPCLNDNPDWIDALVALAEENLGGWR,not soluble
11,MLPGTFFEVLKNEGVVAIATQGEDGPHLVNTWNSYLKVLDGNRIVVPVGGMHKTEANVARDERVLMTLGSRKVAGRNGPGTGFLIRGSAAFRTDGPEFEAIARFKWARAALVITVVSAEQTK,soluble
12,MLPLPWWMLGVGPEEEADESSDYDMVDGHSIEVQESVPTTPVSVFHTPSQSSIIDISDQLVDLPTFLKVAKRRSSTVLETATPAKTPKIQLSERRRKFQRNDTEVMIKTGEPVVDCDETLGLNWLFDTDYPRDAGSGDLLNSTFRIDHRNHGEGTSQITESPKNRDFPLFFSSFDDTTVLFNTTIAGDIDVNERNQASGDWIFRKDKSPTNDPIENDQETDEKTKSELGDGGEIVFKEPVQSTKKTRGRKRGTSVRIEKLSTSRRTSAKKKEEKQKETETFDADKNENPSTPTAPPTMTRRHTPSRKAKTNRTFRL,not soluble
13,MLPPLPDFSLSVEQQFDLQKYRQQVRDISREDLEDLFIEVVRQKMAHENIFKGMIRQGS,soluble
14,MLPSSIEDYALIGDCETAALVGRDGSIDWLCWPSFDSEACFAALLGNEDNGRWQIAPADEVVRCSRRYRGDSLILETTFETATGSITLIDFMPPRGSASDVVRLVRGDRGRVKVAMQLVIRFGYGVALEHHHHHH,not soluble
15,MLPVITRFARPALMAIRPVNAMGVLRASSITKRLYHPKVIEHYTHPRNVGSLDKKLPNVGTGLVGAPACGDVMRLQIKVNDSTGVIEDVKFKTFGCGSAIASSSYMTELVQGMTLDDAAKIKNTEIAKELSLPPVKLHCSMLAEDAIKAAIKDYKSKRNTPTMLS,not soluble
16,MLQALLDSKDFLALTLANPQTLGDEFSFTLGEHTRVNVWDTGVIVFEPAQPQGKDVILSCGVHGNETAPIELCNTLIKQLLQQKIIAKQRTLFLIGNPLAINNGTRIIDENMNRLFSGEHSNPPGLVNPERLRAKKLETYVDRFFKAAAAGRQRIHYDLHTAMRASKHEKFAIYPYRPGRAYSAEQIMFLAASGVDTVLFHHEPTTTFSYFSSEQYGADAFTIELGKVYPMGQNDMTRFIAAQEMFTRLITDKPLQLESFSTDKVNLYQVCRVINKHFDDFEFTFATDVENFRAFPKGFVLAREGGQEIKVEQEVESIVFPNAKVPIGNRTVICLIPSVAPDVRLEHHHHHH,soluble
17,MLQFYRNLGKSGLRVSCLGLGTWVTFGGQITDEMAEHLMTLAYDNGINLFDTAEVYAAGKAEVVLGNIIKKKGWRRSSLVITTKIFWGGKAETERGLSRKHIIEGLKASLERLQLEYVDVVFANRPDPNTPMEETVRAMTHVINQGMAMYWGTSRWSSMEIMEAYSVARQFNLIPPICEQAEYHMFQREKVEVQLPELFHKIGVGAMTWSPLACGIVSGKYDSGIPPYSRASLKGYQWLKDKILSEEGRRQQAKLKELQAIAERLGCTLPQLAIAWCLRNEGVSSVLLGASNAEQLMENIGAIQVLPKLSSSIVHEIDSILGNKPYS,soluble
18,MLQKYSIIVLCCSAVLARVPVAKNCPTGWTWFLRSRGGWCMKVFTEALNQPSAEAKCKAAEAVLAGIQNKEEVAWMSKELTGTMWIGTKRTPPCMNSGVTKQCSQITSYYWTDGSTVGVQGFYWNSGEPNNQGGQGCAKLITSSSVLDDVACTTELTNGYVCGKIATF,not soluble
19,MLQNRLNKARSHAEKHDVDAIVFFNMSNVRYLSGFTGSDGAVVLGRDASWFLTDSRYTTQASRQVVGLPTVEYRIKLDGITELVREQGFRRIGFESEHTAFAVYESLRQKLPKTELVPIGEELAQLRLIKDPSECELLSRVARLASEALLSILPLVKPGAVERELALELEFAMRRAGAENASFDFIVASGERGSLPHGRASDKALAAGELVTIDFGARYEGYCSDETVTVAVGVPDERQCQIYGIVKEAHDRAIAAVRPGAELREIDRIARGYIEEQGYGAFFGHGLGHGVGLDVHEKPVVSPRGEGVAAVGMVFTIEPGIYIPGWGGVRIEDTVIVTEDGCRPITMIPKELMIL,not soluble
20,MLQTLSTHLSSTSTSTTTPLLLLSKPFLSPSAKSQLSHSKPFNFPRTLKPISYYKPPMANILSKLGFGTRSPDPSTMDPTIPQGPDDDLPAPGQQFAQFGAGCFWGVELAFQRVPGVTKTEVGYTQGLLHNPTYEDVCTGTTNHNEVVRVQYDPKECSFDTLIDVLWARHDPTTLNRQGNDVGTQYRSGIYYYTPEQEKAAKESLERQQKLLNRKIVTEILPAKKFYRAEEYHQQYLAKGGRFGFMQSAEKGCNDPIRCYG,soluble
21,MLRFVAILQFILLLLLIFSCNADEAKCTIKPYEAKGDKSPGSNGYVIEINGTTTKSMDISKGFVPGEIYKVSIRGWRTQYTVKTFRGFVVSSLFEDNTSAGSWQVVKGHGDARISPGCRQSGVSHANLKSKTSVHMMWKAPEVSSGCVVFRASVIETKYIWFTEAEGLTVKLCIQKGTQILKPVDDPSATCCACDIAQYDLEFTGIWSKNTHPKDYPTLEHLTHFTDMLGSSHSSNYSLWTIGGISTDGMKEIAEWGNTYKAEAEAKAKASEVRSLMKVKGLWFPDVQGTTKSQFVVNKYHHFVSLATMFGPSPDWCVGLSSVNLCLPDCTWAEERTFELQPFDAGTDSGPTYMSPNEPTEPREPIHWITTKLNPLSPFYNSKSDTIPTLAKVILRRKNVTSSECKSDDILKAEAHNITNTSEDEEYKDRRECMMTQWEPWSLCSATCGKGIRIRSRVYVFPIKAQVFHCHRQTTEKQFCNAKINECENSEAFSSKCQVSSWGSWGECSVQCGHGMRSRNRTFLNPATKSGDCSVDLERKDICVGENGDDCNVTPDPLCKTTAWSDWSPCSASCDEGVRVRTRLFFYSEHEKRCMHVNLQEKDTCVMQSCRRFIEINSEEICQEDKQAGQCAGNFPRYWYNHEKTQCERFIFTGCKGNRNQFETEEECKQICLPGYEKSKSLIPNNQLLEDFGNTEVDDGGERVDCEVSKWTAWGSCSVSCGRGKKSRSRHVVKLARNGGHQCSEHLMQELQCRLRPCPVKLTCQVGPWSRWSPCSVSCGEGSQTRRRRVVRARNDDWEEIECDDAETEVRQCTGRHQC,not soluble
